Data taken from the DeepSol protein solubility set.

Test: soluble on expression in E. coli; label from the status in PepcDB or PDB records

Sequence: MSLSITHQPANLTLAQIQQMIGGVMLLSQHSPLHRRYVVAEWLQRILPAFELNQFCYYEDEHGRPIAFCNWAFVSEQIRDELLSGVREISPSDWRSGQQIYIPEMIAPFGHGREVVNDLRRRVFLPWQGQKVCTVRGKVDAQNDRCIRKVQWFSIEGHHHHHH
- soluble on expression in E. coli: soluble

Sequence: EPGSSEGLGLLNVHTVLTGSKQLTKTEAVLNLNNQKAKVKGYEIHVGRSQVLDEQPLELDNGECDGAISECGQIMGTYLHGFFDEAEALNLITEWVNGTQVKQQDFEVLKEQGINRIADAIEQHMNLDFLFK
- soluble on expression in E. coli: not soluble

Sequence: MSVVAQVSGEEVTRLLAPIDPAVPAGLFDVEDETYQAIDQEMVKLGGLQEASIDWVYIEDASRQYLSQQCKHLRIVAHLSAAWLRSGCWEQWGCTLALLAGMLECYWEAAHPKPGPKGFLGKRKLVALVIDRLAEALPRLDRFTYTPTHAAAAQAALKRLQQQETVQLDTAALGELERLLGKYSELANGVGEAAVPKAPAATEKPAPLADVIATPVSRMSMGNERETRRAVLSMAELINQQDPYDATGYQLRRFGLWAHIQVAPQVRQGNRTELMAVPLDITRFYEEAIASKAVDPALLQRIEKSLTACPFWIRGSFLAATVATQLAMCEVAEAIRCATARFVQRMPSLQQLCFSDGMVFVDDQCLAWLKGTQGPSGQGATPQEFSGLREELVSQLETGGIEPLLLRLQGLQAGVRAPRERCHTTVIAADLLAARGVSWLAQDLCANVARTMQQTTASAWEPEVFERLQQYAASPVLAVQDKDQEPR
- soluble on expression in E. coli: not soluble

Sequence: MEPYVGIVIFELAKSNTSPEENNSFFREDFYIVYADSEEAAHKLVEKRAHEEETPKNAAQDSGPTVTLRHIIDVAPALYGYVDKDCNLYSRHFASLEDYARFEMMLGGKDPLSH
- soluble on expression in E. coli: soluble

Sequence: MSLTNRSGKDFADEKLLTVLAEVERDLEITYDDLQKQAIIGAMNQQFFILTGGPGTGKTTIINGFIETYARLHQLDLDPDHYNDDVFPILLAAPTGRASRRMNELTGLPAATIHRHLGLGQDEAEDALGNELSGALLIVDEFSMVDTWLANKLFQAIPGSMKVLLVGDADQLPSVGPGQIFADLLKIPEIPSVKLDKIFRQGDDSTITDLAHHIKDGQLPSDFTAKKPDRSYFEVSANFVPQMVEQIASAWQKRGNNPFELQILAPMYKGMAGINAMNVLLQNLFNPLNDRLEFALGDMKFREGDKVLHLVNDAEANVFNGDLGQIVELIAAKYTDSKQDELVMDFDGQELTYPRAEWYKITLAYAMSIHKSQGSEFSTVIVPMVSSYSRMLERNLLYTAITRAKQSLILLGEERAFAQAVAREGANRKTYLIERFMGENEGHHHHHH
- soluble on expression in E. coli: not soluble

Sequence: MGSDKIHHHHHHMTLLDEAVVLNDGSLMPKVGVVVGNKPADDAIKAGYRLIDCSLDQKTKLKAENPQLYVEVQVPEDVITRDDFKKIRQDIIDHHADLCLLKLSDNKEKNGQIWQELEQLKIQGWIKNIGVINISVDALNELLNHTQVRPCVAQISYEDQGLINLARENRIQVEIPVHGDINALAEIASHYGTSSVELVMRYFSQKGIVPLFEIEDVVENPRINFTINAEDLATIGQLFAQK
- soluble on expression in E. coli: not soluble

Sequence: GMEFNHLTKQLNQLLAQDYVAFSITENPVVQMLSQASFAQIAYVMQQYSIFPKELVGFTELARRKALGAGWNGVAQELQENIDEEMGSTTGGISHYTLLADGLEEGLGVAVKNTMPSVATSKLLRTVLSLFDRQVDYVLGATYAIEATSIPELTLIVKLVEWLHEGAIPKDLQYFFSKHLDEWEIEHEAGLRTSVAAYIQPEEFGEFAAGFRAMIDAMQVWWQELAQEAISSEVVLSTAIAQHH
- soluble on expression in E. coli: soluble

Sequence: MPETELHVIFDQPNEVFFPGQPISGRVVLSTTEEKYKARAVNIKILGLAHTSWTDYDSVRRVDNDGNVRYDSESVHYSSNVHYLDQALLLWACKDGSNELSAGDYVWPFSYTLPLNVPPSFEGKYGYLRYSVTAEVDRPWRLDKAKRRCITVSPLIDLNAIPLALTPIDDEESENLGCCFFRKGYLELRVNIPKTGFVPGETVPMNIHILNHSSVPVTEVKAKIIQQCKFIAYRNGTIFRFDGGSDTLMSGSSQQTKYDTKPVITQTQPMTVTPGNEHKFVLEFRLPSVTPTICRFSPVITVEYVVQVRVETTSTCGSAAKCEMPILIGTVPIRNYLPPPIPNNYPIGLPPPYANLTDVNVPCPSGGSGTAVIPSAPPPSYQESMYGVGGTELRAEENEKPFAPKYPVFNNLPIYNPTAPPSE
- soluble on expression in E. coli: not soluble

Sequence: MKIDYLTLFPEMFDGVLNHSIMKRAQENNKLQINTVNFRDYAINKHNQVDDYPYGGGQGMVLKPEPVFNAMEDLDVTEQTRVILMCPQGEPFSHQKAVELSKADHIVFICGHYEGYDERIRTHLVTDEISMGDYVLTGGELPAMTMTDAIVRLIPGVLGNEQSHQDDSFSDGLLEFPQYTRPREFKGLTVPDVLLSGNHANIDAWRHEQKLIRTYNKRPDLIEKYPLTNEDKQILERYKIGLKKG
- soluble on expression in E. coli: not soluble

Sequence: MGSDKIHHHHHHGCDREEDERFPSGHHDPIEGDGEMVPINVKVDGVDEFPGGAVTRSGEILTKIVQPLDSTYDSGYDVETTIESLLPVNPVQTRGNMANMQFRVVAYKNNSITAANYAGTAVYSTNASGIASIVANTATPAAVSGQWVLRPGTYAFVFYSYGTNSAPAALSGNWSTTVTHNQDFMLCQKTGVDVKADASGQCLLSGISFSRQCAQLQLCVVAKEFNNNTVQQCAATISGLSNSPVTWNASQTTLPVTGTSGTLNVAWTNPNATTVNSNVYKVLPQTNRTLTIKFTTLKIGNGQMNNAITVSATSRIFSAAGNYKITVSIVPNYISVRSYKWARGNLYKSGSNFYFEASQSNYHGGATEGGFIGWNTLDIGVGKYNSGNYSTANDPCYQVVPPGTWETPSDGQLQDLINAGVTYSGSPKGFWFGGNNGVFLLALGSRDQSSTTINNTISKNGAWAFYWSRTPSGKTAKGLNAMQGNNSAGIDNSWARPDGRTIRCVKR
- soluble on expression in E. coli: not soluble

Sequence: MLNTLIVGASGYAGAELVTYVNRHPHMNITALTVSAQSNDAGKLISDLHPQLKGIVELPLQPMSDISEFSPGVDVVFLATAHEVSHDLAPQFLEAGCVVFDLSGAFRVNDATFYEKYYGFTHQYPELLEQAAYGLAEWCGNKLKEANLIAVPGCYPTAAQLALKPLIDADLLDLNQWPVINATSGVSGAGRKAAISNSFCEVSLQPYGVFTHRHQPEIATHLGADVIFTPHLGNFPRGILETITCRLKSGVTQAQVAQALQQAYAHKPLVRLYDKGVPALKNVVGLPFCDIGFAVQGEHLIIVATEDNLLKGAAAQAVQCANIRFGYAETQSLI
- soluble on expression in E. coli: not soluble

Sequence: SGDFTWSSNLVFSWNKNEIKDLYGDGQNDLGNRWFLGHPIGVIYDYTMVGIWQEDEIARGDHLNWDPIAEAGDVKLADISGPDGVPDGKIDDNDRTIKGQTTPKWIGGLTNTFTYKDFTLSIFIQTTQGLKKNNSLIGMAGDEMGRRNTTTEIGYWTPENKSNEWRSLRKNSNKHGYGFPCDASYTRIKDITLSYTFPQRMIQKMGIGGLQLYVSGRNLFTFTDWVGWDPEARQVARGNSSWDSTRGETVYDSSNYPMTKSCVFGVNLTF
- soluble on expression in E. coli: not soluble

Sequence: GPLGSMSFTNATFSQVLDDLSARFILNLPAEEQSSVERLCFQIEQAHWFYEDFIRAQNDQLPSLGLRVFSAKLFAHCPLLWKWSKVHEEAFDDFLRYKTRIPVRGAIMLDMSMQQCVLVKGWKASSGWGFPKGKIDKDESDVDCAIREVYEETGFDCSSRINPNEFIDMTIRGQNVRLYIIPGISLDTRFESRTRKEISKIEWHNLMDLPTFKKNKPQTMKNKFYMVIPFLAPLKKWIKKRNIANNTTKEKNISVDVDADASSQLLSLLKS
- soluble on expression in E. coli: soluble

Sequence: MGSDKIHHHHHHMMAMITDPDDFFTKGCGRCARFDTPDCSTRPWIDGLNALRRICFSMGLEETAKWAHPCYMHAGRNIALLGAFRSDFLISFLNAGLLVDKAGVLKTPGPNSQTPSVIRFTTVAEVEALEPTIRAYLRQLMDHAVAGTQPPKMAREIDLPDELVDALDADPVLAEAYHALTPGRQRSYLFALSQAKQSATRVARIEKFRDKIIAGKGALER
- soluble on expression in E. coli: not soluble

Sequence: MAHHHHHHMAKKHLKRLYAPKDWMLSKLTGVFAPRPRAGPHKLRECLSLLIIIRNRLKYALNALEAQMILRQGLVCVDGKPRKDGKYPAGFMDVVEIPKTGDRFRILYDVKGRFALVRVSEAESSIKMMKVVNVYTGTGRIPVAVTHDGHRIRYPDPRTSRGDTLVYDVKEKKVLDLIKIGNGKVVMVTGGANRGRIGEIVSIERHPGAFDIARLKDASGHEFATRATNIFVIGKDMSSVPVTLPKQQGLRINVIQEREEKLIAAETRRTTQAHSKRKTKV
- soluble on expression in E. coli: not soluble

Sequence: MSVVSPDPAPVPHDPQRRALLRWLVGGGALAGGLGVSAVAQGYRFGVTHEQWNLVGLTRPVRLALLTDLHYGLYIGAGSVRRWVDATLAECPDLILLGGDLVDSHFDAAARPQQTAALLAELGRLRAPLGVYAVWGNHDYGSFGRSISQSPEASRADWAARRDALRAGLAGQGVTVLLNEGRSLRDDLWLGGVDDLRMGEADSVAALRGSGTRATVLLAHNPDVLLRLRSAPGLVLSGHTHGGQVRLPLLGALKVPADPRFTMGWVRGPQGIPAYVSRGLGMSGLPVRNLCEPEITLLTLLPPGALEHHHHHH
- soluble on expression in E. coli: not soluble

Sequence: MSLNTFWKSFPDVERSLTETCELIEQTLHTRNEDIEEALVTLARSGGKLLRPAFFFLFAQLGDEEKQEKQQLLKIAASLEILHMATLIHDDIIDDSPLRRGAVTIQSQYGKDVAVYTGDLLFTEFFTLIADAMNGSEFMKINAQGMKRLLLGELDQMSHRFDRRMSIPAYLRSVNGKTAELFSLSCLEGAYFGHSSKEVQRLAKRIGRHIGIAFQVYDDILDYTADTETLKKPALEDLSQGVYTLPLLFAYQAAPDVFSPYLDKGRAITLEEAAEVAALVNDYHGVTEAQAFAKKVTNKAITDIQQLPDGTAKETLLSLTELLLHRSFEGHHHHHH
- soluble on expression in E. coli: soluble

Sequence: GPGSMLPHSQPLVLPMEPSNWAVMPPTGVEMPMEPGTFEDISTAGWIGPRRRSFCGPQTEEEWEDLMIHRSSLRRESGQGTGVGLSGSGCLLGTDDPDRDVLCEYYGDMANRDEKVLSCGLRGQEGRRVLGNKPLRQRPNGPMRERTNYGSLASRRQRVMEEGGVWGDVEVCCVPVEPWHPMDMVCLGEERPEDVCVLRQTDTELYGTGRAFATDGKP
- soluble on expression in E. coli: not soluble

Sequence: MYFPIVALIGRYQDTGLDAPLTALAQMLTQAGRRVLVEAETARNAGVSGYPVADWDEIGRTATLAVVMGGDGTVLGAARHLAPYGVPLIGINHGRLGFITDIPLQDAHDALGRVLEGNYQAEDRMLLQGGVWRGEQQMYSASAVNDVVLNRAGRGGMIEVRVELDGAFMYTQRADGLIIATPTGSTAYSLSANGPILHPGMNAMVLVPVAPQTLSNRPIVIPDSGVLNMTLTAMGRVEIGASVHFDMQTWSDLQPGDRITVQRAPHIIRFVHPEGYSFFSTLRRKLHWNLMPQATDNLELEHHHHHH
- soluble on expression in E. coli: not soluble
